Legend:
[1] = molecular target: IntC-CCre tagged with FLAG (UniProt P06956)
[2] = molecular target: IntC-CCre tagged with FLAG (UniProt P06956); remark: listed apart in the source
[3] = molecular target: IntC-CCre tagged with FLAG (UniProt P06956); remark: listed apart in the source

“NCre-IntN tagged with HA (from UniProt P06956 1-59)” was tested. Which TdTomato fluorescence in striatal neurons of Dlx6-CCre-IRES-eGFP reporter mice injected with NCre-IntN-mTagBFP2 lentivirus [1] did it give?
The TdTomato fluorescence in striatal neurons of Dlx6-CCre-IRES-eGFP reporter mice injected with NCre-IntN-mTagBFP2 lentivirus was 78.3%.

And the TdTomato expression in neurons of the central amygdala after injection of FuG-E-NCre-IntN retrograde lentivirus into the dorsal striatum of Dlx6-CCre-IRES-eGFP::LoxP-stop-LoxP-TdTomato mice [2]?
The TdTomato expression in neurons of the central amygdala after injection of FuG-E-NCre-IntN retrograde lentivirus into the dorsal striatum of Dlx6-CCre-IRES-eGFP::LoxP-stop-LoxP-TdTomato mice was 89.9%.

What about the DsRed fluorescence from a LoxP-stop-LoxP DsRed reporter in HEK293T cells cotransfected with both constructs (none with either alone) [3] of the same substance?
Its DsRed fluorescence from a LoxP-stop-LoxP DsRed reporter in HEK293T cells cotransfected with both constructs (none with either alone) is 99%.

Reference: PMC7331137
